We go through one protein from patent US20130324477.

For this data set, the target named is T1, recombinant filaggrin-2 (FLG2), positions 2 to 213 of Q5D862, fused to a Thioredoxin-His-S.Tag affinity label, Q5D862.
T1 chain: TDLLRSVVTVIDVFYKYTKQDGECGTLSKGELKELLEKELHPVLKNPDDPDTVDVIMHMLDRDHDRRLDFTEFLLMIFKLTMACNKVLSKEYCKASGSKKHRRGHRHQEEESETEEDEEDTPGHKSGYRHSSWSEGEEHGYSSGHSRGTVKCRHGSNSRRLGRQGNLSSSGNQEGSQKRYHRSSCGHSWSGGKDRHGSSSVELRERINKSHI

B1: recombinant 28 kDa SASPase (SASPase-28), positions 85 to 343 of Q53RT3 (protein)
chain: MAGSGARSEEGRRQHAFVPEPFDGANVVPNLWLHSFEVINDLNHWDHITKLRFLKESLRGEALGVYNRLSPQDQGDYGTVKEALLKAFGVPGAAPSHLPKEIVFANSMGKGYYLKGKIGKVPVRFLVDSGAQVSVVHPNLWEEVTDGDLDTLQPFENVVKVANGAEMKILGVWDTAVSLGKLKLKAQFLVANASAEEAIIGTDVLQDHNAILDFEHRTCTLKGKKFRLLPVGGSLEDEFDLELIEEDPSSEEGRQELSH
As for B1, the “enzymatic activity of SASPase (hydrolysis of Dabcyl-QIDRIMEK-Edans, EDANS fluorescence at 340/490 nm)” value was “the enzymatic activity of SASPase is significantly increased in the presence of an increasing concentration of FLG2-Hs”.
